Experimental data: article PMC8882007, “Syndapin-2 mediated transcytosis of amyloid-β across the blood–brain barrier” (Brain Communications, 2022)

How the values were obtained:
[1] = Transmission electron microscopy of Aβ assemblies; format: physicochemical; conditions: negative staining, ∼0.5 mg ml^−1 dispersion
Method: Peptide films were then resuspended in dimethyl sulfoxide (DMSO) to 5 mM, bath sonicated for 10 min and vortexed for 30 s. […] Immediately before use, the oligomeric solutions were centrifuged at 14 000 g for 10 min at 4°C (to remove any fibrils that might be present), and the supernatant was diluted to the final experimental concentration. […] TEM imaging was performed using a JOEL JEM-2200FS microscope equipped with a field emission gun at 200 kV, and an in-column Omega filter. TEM microscope was used in energy-filtered mode with the slit inserted to increase image contrast by collecting only elastically scattered electrons. Digital Micrograph™ software (version 3.20) was used for image acquisition and processing. […] For sample preparation, 400 mesh copper grids were glow-discharged for 40 s to render them hydrophilic. […] The grid was blotted with filter paper and immersed in Uranyless staining solution for 40 s for negative staining. The grid was blotted again and dried under vacuum for 1 min.

[2] = target: T1, LRP1 (Mus musculus, UniProt Q91ZX7); test: LRP1 expression in BECs treated with Aβ assemblies (Western blot); format: cell-based; conditions: 100 nM for 2 h, normalised to GAPDH and untreated cells, n = 3
T1 construct: endogenous in cells; host or cells: bEnd3 (ATCC CRL-2299)
T1 sequence (Q91ZX7 20-4545): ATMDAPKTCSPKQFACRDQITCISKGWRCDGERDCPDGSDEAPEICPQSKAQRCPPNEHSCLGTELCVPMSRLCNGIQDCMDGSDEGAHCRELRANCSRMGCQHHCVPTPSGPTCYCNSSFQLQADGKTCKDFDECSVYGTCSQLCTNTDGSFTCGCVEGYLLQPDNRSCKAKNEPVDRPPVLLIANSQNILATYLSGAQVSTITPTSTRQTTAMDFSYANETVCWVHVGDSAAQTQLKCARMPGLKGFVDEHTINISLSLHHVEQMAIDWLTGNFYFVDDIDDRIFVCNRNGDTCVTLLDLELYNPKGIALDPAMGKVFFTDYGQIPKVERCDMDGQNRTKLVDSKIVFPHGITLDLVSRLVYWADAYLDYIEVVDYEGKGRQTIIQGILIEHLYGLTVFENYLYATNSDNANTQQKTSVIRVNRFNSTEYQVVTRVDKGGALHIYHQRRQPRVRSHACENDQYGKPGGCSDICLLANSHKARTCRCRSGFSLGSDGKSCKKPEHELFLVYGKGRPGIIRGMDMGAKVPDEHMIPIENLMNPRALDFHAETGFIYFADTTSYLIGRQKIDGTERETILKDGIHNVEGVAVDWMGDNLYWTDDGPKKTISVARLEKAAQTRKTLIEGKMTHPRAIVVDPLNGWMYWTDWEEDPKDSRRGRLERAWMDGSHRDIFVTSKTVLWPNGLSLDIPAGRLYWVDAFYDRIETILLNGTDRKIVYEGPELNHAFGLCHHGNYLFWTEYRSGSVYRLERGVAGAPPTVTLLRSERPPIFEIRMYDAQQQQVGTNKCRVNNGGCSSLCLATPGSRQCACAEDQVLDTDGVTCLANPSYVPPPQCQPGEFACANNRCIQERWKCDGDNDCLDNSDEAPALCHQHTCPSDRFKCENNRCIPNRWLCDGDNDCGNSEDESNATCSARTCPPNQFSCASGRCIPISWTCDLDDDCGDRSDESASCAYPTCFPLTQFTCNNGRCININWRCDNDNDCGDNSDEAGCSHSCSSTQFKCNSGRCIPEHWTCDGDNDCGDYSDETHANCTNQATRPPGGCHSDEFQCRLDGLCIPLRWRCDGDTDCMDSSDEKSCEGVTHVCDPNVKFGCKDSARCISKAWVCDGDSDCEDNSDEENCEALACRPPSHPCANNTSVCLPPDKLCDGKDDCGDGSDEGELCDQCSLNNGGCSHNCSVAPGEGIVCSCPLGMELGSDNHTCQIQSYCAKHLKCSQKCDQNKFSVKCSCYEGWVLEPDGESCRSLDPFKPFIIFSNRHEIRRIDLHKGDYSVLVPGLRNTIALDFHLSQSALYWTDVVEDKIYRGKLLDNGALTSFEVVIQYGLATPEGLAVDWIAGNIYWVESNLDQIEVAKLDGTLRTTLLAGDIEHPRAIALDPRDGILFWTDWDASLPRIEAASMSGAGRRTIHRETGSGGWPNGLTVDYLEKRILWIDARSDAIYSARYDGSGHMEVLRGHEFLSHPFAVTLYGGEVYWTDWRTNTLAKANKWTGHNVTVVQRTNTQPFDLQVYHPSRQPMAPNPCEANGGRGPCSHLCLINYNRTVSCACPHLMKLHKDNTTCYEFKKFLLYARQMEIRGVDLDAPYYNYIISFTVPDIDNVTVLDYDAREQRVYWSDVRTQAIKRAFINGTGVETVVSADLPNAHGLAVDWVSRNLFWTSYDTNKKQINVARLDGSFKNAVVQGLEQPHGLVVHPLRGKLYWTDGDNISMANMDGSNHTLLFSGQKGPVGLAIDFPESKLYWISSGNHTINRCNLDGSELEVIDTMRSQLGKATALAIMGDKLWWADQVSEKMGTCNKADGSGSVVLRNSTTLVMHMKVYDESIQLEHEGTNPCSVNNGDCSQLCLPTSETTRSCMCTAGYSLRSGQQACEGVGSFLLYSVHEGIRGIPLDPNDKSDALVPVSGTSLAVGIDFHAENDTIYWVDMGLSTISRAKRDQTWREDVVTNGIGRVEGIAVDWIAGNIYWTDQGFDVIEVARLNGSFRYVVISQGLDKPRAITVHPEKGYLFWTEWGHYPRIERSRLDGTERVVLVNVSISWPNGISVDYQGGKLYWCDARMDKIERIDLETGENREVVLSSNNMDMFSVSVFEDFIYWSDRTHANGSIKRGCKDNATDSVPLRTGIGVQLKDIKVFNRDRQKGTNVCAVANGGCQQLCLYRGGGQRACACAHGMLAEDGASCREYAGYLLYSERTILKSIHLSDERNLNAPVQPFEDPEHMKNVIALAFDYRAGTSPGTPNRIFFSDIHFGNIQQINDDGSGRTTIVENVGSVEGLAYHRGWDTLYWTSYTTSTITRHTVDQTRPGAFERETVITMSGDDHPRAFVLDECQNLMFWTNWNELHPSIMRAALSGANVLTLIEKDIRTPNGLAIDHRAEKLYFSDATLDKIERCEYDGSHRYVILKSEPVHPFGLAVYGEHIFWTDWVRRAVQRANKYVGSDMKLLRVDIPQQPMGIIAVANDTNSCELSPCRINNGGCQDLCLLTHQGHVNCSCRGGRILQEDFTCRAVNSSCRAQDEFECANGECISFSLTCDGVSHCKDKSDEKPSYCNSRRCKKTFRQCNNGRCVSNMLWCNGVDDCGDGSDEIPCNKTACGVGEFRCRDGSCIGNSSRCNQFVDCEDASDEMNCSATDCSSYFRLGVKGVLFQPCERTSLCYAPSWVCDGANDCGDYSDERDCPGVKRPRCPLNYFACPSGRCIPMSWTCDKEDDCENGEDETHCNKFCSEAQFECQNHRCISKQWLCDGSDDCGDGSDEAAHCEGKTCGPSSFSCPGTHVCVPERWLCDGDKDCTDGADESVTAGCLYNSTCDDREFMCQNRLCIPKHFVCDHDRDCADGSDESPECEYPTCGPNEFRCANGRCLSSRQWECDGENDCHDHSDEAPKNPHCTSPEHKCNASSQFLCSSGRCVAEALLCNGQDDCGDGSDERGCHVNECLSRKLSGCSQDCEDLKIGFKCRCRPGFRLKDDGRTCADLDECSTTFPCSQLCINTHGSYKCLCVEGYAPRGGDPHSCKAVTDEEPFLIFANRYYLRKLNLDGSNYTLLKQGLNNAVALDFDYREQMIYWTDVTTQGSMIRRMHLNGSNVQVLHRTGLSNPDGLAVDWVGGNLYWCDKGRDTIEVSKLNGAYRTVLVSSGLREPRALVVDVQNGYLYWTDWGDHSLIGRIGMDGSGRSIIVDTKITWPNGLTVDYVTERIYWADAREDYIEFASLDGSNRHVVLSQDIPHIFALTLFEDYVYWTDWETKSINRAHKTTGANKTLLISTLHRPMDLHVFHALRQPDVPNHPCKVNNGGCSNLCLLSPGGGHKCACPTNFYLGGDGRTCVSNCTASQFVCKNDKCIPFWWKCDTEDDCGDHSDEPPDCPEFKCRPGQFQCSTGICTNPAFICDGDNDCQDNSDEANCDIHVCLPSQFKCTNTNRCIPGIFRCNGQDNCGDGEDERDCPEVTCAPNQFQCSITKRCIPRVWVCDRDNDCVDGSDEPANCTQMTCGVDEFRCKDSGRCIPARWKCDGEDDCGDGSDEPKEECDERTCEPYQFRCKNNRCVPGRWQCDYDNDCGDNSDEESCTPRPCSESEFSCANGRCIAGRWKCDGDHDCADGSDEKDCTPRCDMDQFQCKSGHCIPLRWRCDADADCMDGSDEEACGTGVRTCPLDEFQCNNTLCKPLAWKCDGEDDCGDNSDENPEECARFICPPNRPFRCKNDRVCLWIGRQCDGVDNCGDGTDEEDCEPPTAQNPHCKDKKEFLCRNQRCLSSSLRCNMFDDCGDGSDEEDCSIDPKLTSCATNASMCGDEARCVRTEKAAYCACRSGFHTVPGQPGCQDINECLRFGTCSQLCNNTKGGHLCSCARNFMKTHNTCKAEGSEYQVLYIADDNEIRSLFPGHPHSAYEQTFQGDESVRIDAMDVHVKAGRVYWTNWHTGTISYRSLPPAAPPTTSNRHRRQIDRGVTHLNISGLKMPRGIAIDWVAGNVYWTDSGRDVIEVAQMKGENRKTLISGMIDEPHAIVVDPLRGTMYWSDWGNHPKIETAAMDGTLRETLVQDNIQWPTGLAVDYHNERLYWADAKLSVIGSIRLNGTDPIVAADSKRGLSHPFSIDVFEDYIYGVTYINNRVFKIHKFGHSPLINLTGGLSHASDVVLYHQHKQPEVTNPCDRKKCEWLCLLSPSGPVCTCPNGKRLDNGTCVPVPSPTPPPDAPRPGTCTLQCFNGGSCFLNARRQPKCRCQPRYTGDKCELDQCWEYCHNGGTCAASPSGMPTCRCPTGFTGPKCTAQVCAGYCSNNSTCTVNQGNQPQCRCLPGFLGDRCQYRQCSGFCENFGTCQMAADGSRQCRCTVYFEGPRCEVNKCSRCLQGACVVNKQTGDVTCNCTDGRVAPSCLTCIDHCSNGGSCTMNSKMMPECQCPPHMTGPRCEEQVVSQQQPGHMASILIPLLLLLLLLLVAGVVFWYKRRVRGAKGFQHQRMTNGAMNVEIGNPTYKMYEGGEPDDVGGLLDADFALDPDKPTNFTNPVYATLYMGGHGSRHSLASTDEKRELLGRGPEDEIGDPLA
Method: Polarized bEnd3 were washed twice with PBS and RIPA buffer containing protease inhibitors (1:50) was added directly to the transwell membranes and left on ice for 1 h. Cells were collected, centrifuged and the supernatant was collected for Western blot analysis. WT, KO and APP-PS1 mice were anaesthetized, decapitated and the brains were carefully collected from the skull. Brains were homogenized in a 4-fold excess volume of ice-cold buffer solution: 10 mM HEPES, 141 mM NaCl, 4 mM KCl, 2.8 mM CaCl2, 1 mM MgSO4, 1 mM NaH2PO4 and 10 mM glucose (pH 7.4) in a glass homogenizer (10–15 strokes). Microvessels and capillary-depleted fractions were prepared from WT, KO and APP-PS1 mice brains, as previously described.[28] Homogenate was suspended in an equal volume of 26% (w/v) dextran (64–76 kDa), mixed and centrifuged at 15 800 g for 10 min at 4°C. Pellet containing the brain microvessels was carefully separated from the supernatant containing capillary-depleted brain (parenchyma). Both fractions, microvessels and parenchyma, were washed twice in ice-cold buffered solution by centrifugation at 15 800 g for 10 min. Brain microvessels and parenchyma fractions were resuspended in RIPA lysis buffer containing protease inhibitors, centrifuged for 20 min, and the supernatant used for Western blot analysis. Protein levels in the lysates were determined using a BCA Protein Assay Kit. Lysates were mixed with Laemmli sample buffer, and proteins (25 µg) were separated on 10% SDS polyacrylamide gels and transferred to polyvinylidene difluoride (PVDF) membranes. All membranes were blocked with 5% (w/v) non-fat milk in Tris-buffered saline (TBS) containing 0.1% (w/v) Tween-20 (TBS-T) for 1 h and then incubated at 4°C with the primary antibody overnight. After washing with TBS-T three times for 5 min, membranes were incubated with the corresponding secondary antibody for 1 h at room temperature, washed with TBS-T and imaged using an Odyssey CLx (LI-COR Biosciences). […]
Cell metabolic activity of BECs was assessed by using the RealTime-Glo™ MT Cell Viability Assay. […]

[3] = Thioflavin T (ThT) fluorescence assay of Aβ assemblies; format: physicochemical; conditions: Aβ preparation 10 µM in PBS with ThT 50 µM, 37°C, 450/485 nm; n = 3
Method: Aβ assemblies were prepared according to previously described protocols.[48],[49] Briefly, Aβ (1–40) peptide was dissolved in hexafluoro-2-propanol at 1 mM, vortexed and bath sonicated to obtain a homogenous solution, and aliquoted to microcentrifuge tubes. HIPF was removed by overnight evaporation and, once all solvent was removed, Aβ (1–40) films were stored at −80°C until further processed. Peptide films were then resuspended in dimethyl sulfoxide (DMSO) to 5 mM, bath sonicated for 10 min and vortexed for 30 s. […] Immediately before use, the oligomeric solutions were centrifuged at 14 000 g for 10 min at 4°C (to remove any fibrils that might be present), and the supernatant was diluted to the final experimental concentration. […] Monomeric Aβ was obtained by dissolving the peptide directly in DMSO at 1 mM. […] Aβ assemblies were characterized by measuring ThT fluorescence and transmission electron microscopy (TEM). […] Briefly, each Aβ preparation (20 µl, 10 µM) was incubated with ThT solution (80 µl, 50 µM) at 37°C and then the fluorescence of ThT was measured at 450/485 nm in a 96-well plate using a Spark Multimode microplate reader (Tecan). […] Images were recorded using a direct detection camera K2 IS from Gatan working in counted mode to allow for the sensitive Aβ structures to be imaged at low electron doses without beam damage. […]

[4] = target: T2, LRP1/Rab5 (Mus musculus, UniProt Q91ZX7); test: Proximity ligation assay LRP1/Rab5 in BECs treated with Aβ assemblies; format: cell-based; conditions: Aβ assemblies at 100 nM for 15 min (Fig. 6B2)
T2 construct: endogenous in cells; host or cells: bEnd3 (ATCC CRL-2299)
Method: (§1) Polarized bEnd3 were washed twice with PBS, fixed in 4% (w/v) PFA in PBS for 15 min and permeabilized with 0.1% (w/v) Triton X-100 in PBS for 10 min. PLA was carried out by using Duolink probes and detection reagents according to the supplier’s instructions. Briefly, monolayers were incubated with Duolink blocking solution for 1 h at 37°C and then incubated with the two antibodies targeting each protein of interest overnight at 4°C. Subsequently, cells were incubated with Duolink PLA probes (anti-rabbit and anti-mouse) for 1 h at 37°C, washed and incubated with Duolink ligase and polymerase enzymes for 30 and 100 min, respectively. As a negative control, PLA protocol was followed with the exception of the addition of the primary antibodies to determine the specificity of the PLA probes. Nuclei were counterstained by incubation with DAPI for 10 min. Membranes were mounted in glass coverslips using Vectashield Mounting Media. Images were acquired using a Leica TCS SP8 confocal microscope, via sequential scan to reduce fluorophore bleed-through, with a 63× oil immersion objective. z-stacks (10–20 stacks per sample) were collected (20 optical sections) and fluorescence intensity of the PLA signal was quantified using ImageJ. The abundance of PLA signal was normalized by the number of nuclei in each z-stack image. List of antibodies in Supplementary material.
Cell metabolic activity of BECs was assessed by using the RealTime-Glo™ MT Cell Viability Assay. Cells were seeded in 96-well plates at a density of 10 000 cells per well and incubated with Aβ assemblies at concentrations ranging 0.001–1 µM for 1 and 24 h. RealTime-Glo™ MT Assay was carried out according to the supplier’s instructions. […] To evaluate the effect of Aβ assemblies in the expression of LRP1, cells were treated for 2 h with Aβ at 10 µM and then, cells were collected and analysed by Western blotting, as described above.

[5] = test system: syndapin-2; test: Proximity ligation assay Aβ/syndapin-2 in BECs treated with Aβ assemblies; format: cell-based, mouse; conditions: Aβ assemblies at 100 nM for 15 min (Fig. 6C1)
Method: as §1, with “Nuclei were counterstained by incubation with DAPI for 10 min. Membranes were mounted in glass coverslips using Vectashield Mounting Media.” left out, “The abundance of PLA signal was normalized by the number of nuclei in each z-stack image. List of antibodies in Supplementary material.” left out
Cell metabolic activity of BECs was assessed by using the RealTime-Glo™ MT Cell Viability Assay. […] To evaluate the effect of Aβ assemblies in the expression of LRP1, cells were treated for 2 h with Aβ at 10 µM and then, cells were collected and analysed by Western blotting, as described above.

[6] = target: T3, LRP1/syndapin-2 (Mus musculus, UniProt Q91ZX7); test: Proximity ligation assay LRP1/syndapin-2 in BECs treated with Aβ; format: cell-based; conditions: Aβ assemblies at 100 nM for 15 min (Fig. 6B1)
T3 construct: endogenous in cells; host or cells: bEnd3 (ATCC CRL-2299), polarized

Substance | Thickness of fibrils (TEM) [1] [nm] | Reduction in the expression levels of LRP1 [2] [fold] | ThT fluorescence intensity (fibril structure) [3] | LRP1/Rab5 association (PLA) [4] | Morphology (TEM) [1] | LRP1 expression [2] | Association of Aβ with syndapin-2 (PLA) [5] | LRP1/syndapin-2 interaction (PLA), comparison among assemblies [6]
Aβ fibrils: Aβ (1–40) fibrils prepared in cold 10 mM HCl, incubated at 37°C for 24 h | ~10 | 2 | characteristic increase in the fluorescence intensity of ThT | favour LRP1/Rab5 association |  |  |  | 
Aβ monomers: Monomeric Aβ obtained by dissolving the Aβ (1–40) peptide directly in DMSO at 1 mM |  |  |  | favour LRP1/Rab5 association | small assemblies and agglomerates | unaltered |  | 
Aβ oligomers: Aβ (1–40) oligomers formed in PBS at 4°C for 24 h, supernatant after centrifugation |  |  |  | decrease |  | unaltered | more associated with syndapin-2 | highest increase
